{"source": "patent US20250263469A1", "target": "SARS-CoV-2 Spike on pseudotyped virus (PsV) (SARS-CoV-2) (UniProt P0DTC2)", "experiment": "cell-based or functional assay"}
{"substance": "REGN10933 (recombinant mAb, reference IgG) (antibody)", "values": [{"measurement": "Median IC50, SARS-CoV-2 PsV neutralization", "value": 0.0044, "unit": "µg/mL"}]}
{"substance": "REGN10987 (recombinant mAb, reference IgG) (antibody)", "values": [{"measurement": "Median IC50, SARS-CoV-2 PsV neutralization", "value": 0.03, "unit": "µg/mL"}]}
